In patent US20140287419A1, “Compositions Having Dicamba Decarboxylase Activity and Methods of Use” (priority 2013, published 2014):

Assay: 14C assay with IPTG-induced recombinant E. coli cells (14CO2 capture from [14C]-carboxyl-labeled dicamba)
Settings: for Dicamba Decarboxylase Activity: IPTG-induced recombinant E. coli cells, [14C]-carboxyl-labeled dicamba, 14CO2 capture; for Enzymatic Detection level: dicamba decarboxylation activity of the protein of the given SEQ ID NO

| Molecule | Dicamba Decarboxylase Activity | Enzymatic Detection level |
| --- | --- | --- |
| 19 (protein, listed as Talaromyces marneffei) MATPIITLEEHYISSAIRDASETDHYAVFPSQIISKLNTLSTERLQDLDNGHVSLQVISHGPGAQPPYLCQAANDELASAISANPTRFAGFALLPIAEPQLAVQELERCITQHKFVGALIDNHTNGQFYDDQKFWPVFEKAQELDAPIYVHPSYPDEESGVAAHYRGNYDDRIAAALGAYGWGWHSDTALSILRLFAAGLFDTYPNIKIIIGHMGEMLPFQLERVIGIASRFGRSRGLREVWTQNIWVTTSGMFALAPLACLLQTMPIERVLYSVDYPFSANEKGFAFLEEIKKSGLIKEGEDWERFLYKNAQELLKVNV | High | High |
| 23 (protein, listed as Aplysina aerophoba) MAIDIDARSQPGLETARRAMSRRDFLGGAAAFGITAAATTALPASTAAGEEEDLFLLGLEEHFATAELRRLNGIQFPQGTPRFDINDVGAGRIADMDAAGIDIQVLSALTPGAQNLPGAEGVAYARRLNSWVAHEVIPAYPGRFRAFATLPLSEPQAAADELEYAVRELGFLGCMTYGAVDGKFLDHADFVPVLARAETLDVPIYIHPNWASPQVMDTYYNGLGNEWVSRVLSGAGYGWHQEVALQCLRMIASGVFDRFPRLQIIVGHMGEGLPFFYWRFGDDLARITADTLEKPVQQYFHDNFWITTSAFFRDELLRLVLSVMGEDRVMFAVDYPFVSNKVGADWFRAVDLPRNVKEKIAHKNAERLLKIGPF | Low | Low |
| 17 (protein, Aspergillus niger) MARGKIALEEAFEVKGMDEEIDAQAALYIAPKDVERYKRQIVSITDERLQLSDQNGIGYSILSLTVPGIQGITDKDKAEKRARDVNNYIHDQIKDHRDRLGAFAALSMHDPRQAGHELRRCVKELGFHGALLNDVQHTGEGDDDQPLFYDQPDYDEFWRVAVELDVPVYLHPAAPLRDTLIYKQSYEDRKYLVGPPQSYCNGVALHLMGIIVNGVFDRFPNLKVIVGHMGERIPFDFWRMDHWVKGVTRPLAEKNGDTVCQKEPLYYFKRNIYITTSGHFSTQNLRYLYEWLGDERMMFSVDFPYERMEHGCQWYDDDAEKIKEALGGRDGYLRVGRDNARRLFKLTKFKDCDAV | Low | Low |
| 18 (protein, listed as Legionella pneumophila) MAIVDFETHFITEACIDYLTQRQEVPKLVPELNGAYTMCFTPDVSLFHTSALMEELLSLNEQRLAIMDQAGVTIQVLSLTTINGIDSCPGDENKSTALAREVNDQLYSAIQKHPERFKGFASISPYDVKEGVKELERAISQLGFVGWLTHSNFGQDNYLDDKIYWPLLEAAESLNIPIYLHPNVPIMREFGKYGFALGGSALGFEFDTALCLMRMILGGVFDAFPKLKIMLGHLGETMPFLMERLDHLYRIPDLKPYRPSIQRIPSEVLRQNVYITTSGRFFVPALRYVLEVMGEDRVLFASDYPMESLLDATRFIQDSDLSNQTKQKIFSINAKNLNLI | Low | Low |
| 20 (protein, listed as Legionella pneumophila) MAIVDFETHFITEACIDYLTQRQEVPKLVPDLNGAYTMCFTPDVSLFHTSALMEELLSLNEQRLAIMDQAGVTIQVLSLTTINGIDSCPGDENKSTALAREVNDQLYSAIQRHPERFKGFASISPYDVKEGVKELERAISQLGFVGWLTHSNFGQDNYLDDKTYWPLLEAAEGLNIPIYLHPNVPIMREFGKYGFALGGSALGFEFDTALCLMRMILGGVFDAFPKLKIMLGHLGETMPFLMERLDHLYRIPDLKAYRPSIQRIPSEVLRQNVYITTSGRFFVPALRYVLEVMGEDRVLFASDYPMESLLDATRFIQDSDLSNQTKQKIFSINAKNLNLI | Low | Low |
| 22 (protein, listed as Staphylococcus epidermidis) MAKSINFEEHYVVDDIQKETMKYMSSDPNGVPMQTMLKGLEQKSGFTNADDITKHDERIKFMDEHDVEMQVLSYGNGAPSNLEGERAIELCQQANDTLAKYVNEHPDRFVGFATLPINEPQAAVEEFKRCIKELGFKGALIMGHPKNGFLDQDQYDDLFATAEALNVPIYLHPSPVQSDVYQAYYKGNYSDVTAATFACFGYGWHVDVGIHAIHLVLSGVFDRHPNLNMIIGHWGEFVPFFLERMDDILFADHLEHPISYYFKNNFYITPSGMLTKPQFDLVKAEVGVDRILYSADYPYVEPDKLGTFLDELDLTEEEKEKISYKNGAKLLGLEK | High | High |
| 13 (protein, listed as Metarhizium acridum) MAHGKVALEEAFALPRLHEKTRWWASLFAVNPDKHAAEMTDITDIRINYMDKHGVGYTILSYTAPGVQDISDPKEAQALAVEINDYVAGAIKNHPDRFGAFATLSMRNPQEAATELKRCVTQYGFKGALVNDTQRAGEDDMIFYDGPEWDVFWSTVEELDVPFYLHPRNPTGSLYEKLWAKRKWLVGPPLSFAQGVSLHVLGMVTNGVFDRHPKLQVVLGHLGEHIPFDMWRINHWFEDVKKPLGLDCKKTIREYFQQNIWITTSGHFSTTTLQFCMAEVGADRILFSIDYPFECFADACDWYDGVPINLVDKAKIGRDNARRLFKLPEFKDSEKHVDA | No | No |
| 14 (protein, listed as Talaromyces marneffei) MARGKVSFEEAYEIPALADKSREQAALYIAPKDLDRYLSEIKSPTGGRLDISNKNGIGYTIYSLTVPGVQGIADKAKAEKHATDVNNWIYNEIKDHRDRMGAFAALSMHDPVQAGQELERCVKKLGFHGALLNNWQHAGTDGETYIFYDHPSYDVFWQKCVELDVPVYLHPSAPSGKVFDTFFKDRRYLIGPPISFAQDVALHTMGLITNGVFDRNPKLKLILGHLGERIPQDLWRTNHWLEDVERPLADSRGDTMSRKPLLYYFKNNIYVTTSGHFSTETVKFVCDYFGADRILFSVDSPYEKIEEGAGWYDKDKDNLTKALGGPQQYLDVGRENAKKLFKLGKYHDCDA | Low | Low |
| 21 (protein, listed as Agrobacterium tumefaciens) MAQGKVALEEHFAIPETLQDSAGFVPGDYWKELQHRLLDIQDTRLKLMDAHGIETMILSLNAPAVQAIPDRKKAIEIARRANDVLAEECARRPDRFLAFAALPLQDPDAATQELQRCVNDLGFVGALVNGFSQEGDGQTPLYYDLPQYRPFWGEVEKLDVPFYLHPRNPLPQDSRIYDGHPWLLGPTWAFAQETAVHALRLMASGLFDAHPRLNIILGHMGEGLPYMMWRIDHRNAWVKLPPRYPAKRRFVDYFNENFHITTSGNFRTQTLIDAILEIGADRILFSTDWPFENIDHASDWFNATTIAEADRVKIGRTNARRLFKLDGR | High | High |
| 16 (protein, listed as Staphylococcus aureus) MAQNNMEANQMKSITFEEHYVIEDIQKETMNAISADPKGVPMKVMLEGLEKKTGFTNADELSHHDERIQFMNNQDVQIQVLSYGNGSPSNLVGQKAIELCQKANDQLANYIAQYPNRFVGFATLPINEPETAAREFERCINDLGFKGALIMGRAQDGFLDQDKYDIIFKTAENLGVPIYLHPAPVNSDIYQSYYKGNYPEVTAATFACFGYGWHIDVGIHAIHLVLSGIFDRYPKLNMIIGHWGEFIPFFLERMDEALFAEHLNHPVSYYFKNNFYITPSGMLTKPQFDLVKKEAGIDRILYAADYPYIEPEKLGVFLDELGLTDEEKEKISYTNGAKLLGLSSNN | High | High |
| 15 (protein, listed as Metarhizium anisopliae) MAQEIAKSHETSTRFAGFAVLPMRDPEAAAKELERAVKKLGFVGALVDHKTAHGNGFCEGNEYDVLWRKAEQLAVPIYLHPSWPTEKQFQQAYAGNYSPTAAGTIGGAMFNWHSEVGHHVLRLYAAGVFDKFPKLKIIIGHFGEMIPYMLDRIREQDHRLGKTGRTFSEVYDENIWITTSGVWSLDPMRCILANTKIDHILYSVDYPFTMNERGLEWFQELEKSGLLSEEDLALIAYKNCEKLLGVKAPTQD | Low | Low |
